T1: human CDH17, full length, expressed on cells (HEK293-hCDH17); AsPC-1, HCT-8, AGS, LoVo, KATO III, HT-29 tumor … (human, UniProt Q12864 23-832)
T1 construct: also called human CDH17 expressed on tumor cells
T1 sequence: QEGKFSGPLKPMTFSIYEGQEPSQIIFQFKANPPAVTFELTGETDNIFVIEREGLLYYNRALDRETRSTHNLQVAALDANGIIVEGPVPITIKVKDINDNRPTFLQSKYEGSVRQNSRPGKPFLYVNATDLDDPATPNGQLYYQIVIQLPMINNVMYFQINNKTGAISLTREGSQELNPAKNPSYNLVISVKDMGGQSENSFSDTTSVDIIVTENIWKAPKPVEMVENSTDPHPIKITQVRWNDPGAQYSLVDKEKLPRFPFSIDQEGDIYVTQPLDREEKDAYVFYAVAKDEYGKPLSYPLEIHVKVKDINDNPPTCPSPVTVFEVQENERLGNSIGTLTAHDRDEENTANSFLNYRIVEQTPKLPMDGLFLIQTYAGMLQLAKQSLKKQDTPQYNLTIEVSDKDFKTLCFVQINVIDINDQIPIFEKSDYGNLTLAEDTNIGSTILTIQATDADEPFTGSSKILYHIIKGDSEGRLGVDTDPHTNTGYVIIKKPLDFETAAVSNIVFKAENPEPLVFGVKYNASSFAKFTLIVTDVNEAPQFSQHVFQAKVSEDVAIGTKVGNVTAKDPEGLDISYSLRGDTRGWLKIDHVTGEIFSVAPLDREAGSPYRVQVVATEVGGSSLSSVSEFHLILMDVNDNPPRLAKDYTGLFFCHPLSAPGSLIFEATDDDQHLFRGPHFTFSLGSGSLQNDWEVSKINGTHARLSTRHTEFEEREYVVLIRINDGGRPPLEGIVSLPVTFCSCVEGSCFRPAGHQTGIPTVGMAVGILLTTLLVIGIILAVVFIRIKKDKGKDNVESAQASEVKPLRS

T2: hCDH17-his (full length extracellular domain of human CDH17, Q23-M787, his tag at the C-terminal) (human, UniProt Q12864 23-787)
T2 construct: Limits of the construct (UniProt Q12864, Q23-M787, C-terminal his tag); also called human CDH17-his protein; human CDH17 protein
T2 sequence: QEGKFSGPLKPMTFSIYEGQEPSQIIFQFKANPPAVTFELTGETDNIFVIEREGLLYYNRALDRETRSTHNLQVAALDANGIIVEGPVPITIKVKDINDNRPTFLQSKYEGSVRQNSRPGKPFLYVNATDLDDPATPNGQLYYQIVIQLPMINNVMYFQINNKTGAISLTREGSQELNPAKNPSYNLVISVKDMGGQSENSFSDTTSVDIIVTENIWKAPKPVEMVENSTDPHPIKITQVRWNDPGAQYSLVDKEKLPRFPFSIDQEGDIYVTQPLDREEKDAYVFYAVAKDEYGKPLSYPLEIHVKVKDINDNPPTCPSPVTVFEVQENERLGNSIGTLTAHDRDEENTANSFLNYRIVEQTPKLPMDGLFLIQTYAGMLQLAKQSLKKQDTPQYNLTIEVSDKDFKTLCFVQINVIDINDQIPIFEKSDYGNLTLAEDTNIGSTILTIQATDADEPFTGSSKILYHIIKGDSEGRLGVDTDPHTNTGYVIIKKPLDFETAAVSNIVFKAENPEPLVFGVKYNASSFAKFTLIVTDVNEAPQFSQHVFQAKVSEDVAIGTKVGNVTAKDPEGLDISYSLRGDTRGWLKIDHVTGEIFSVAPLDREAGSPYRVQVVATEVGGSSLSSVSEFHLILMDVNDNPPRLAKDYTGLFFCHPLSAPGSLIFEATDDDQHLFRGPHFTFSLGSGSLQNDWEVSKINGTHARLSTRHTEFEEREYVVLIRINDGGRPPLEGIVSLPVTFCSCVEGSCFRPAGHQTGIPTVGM

T3: human CDH16 protein (hCDH16-his, Novoprotein, Cat. No. CJ16) (human, UniProt O75309 19-786)
T3 construct: Bought; also called human CDH16-his
T3 sequence (looked up): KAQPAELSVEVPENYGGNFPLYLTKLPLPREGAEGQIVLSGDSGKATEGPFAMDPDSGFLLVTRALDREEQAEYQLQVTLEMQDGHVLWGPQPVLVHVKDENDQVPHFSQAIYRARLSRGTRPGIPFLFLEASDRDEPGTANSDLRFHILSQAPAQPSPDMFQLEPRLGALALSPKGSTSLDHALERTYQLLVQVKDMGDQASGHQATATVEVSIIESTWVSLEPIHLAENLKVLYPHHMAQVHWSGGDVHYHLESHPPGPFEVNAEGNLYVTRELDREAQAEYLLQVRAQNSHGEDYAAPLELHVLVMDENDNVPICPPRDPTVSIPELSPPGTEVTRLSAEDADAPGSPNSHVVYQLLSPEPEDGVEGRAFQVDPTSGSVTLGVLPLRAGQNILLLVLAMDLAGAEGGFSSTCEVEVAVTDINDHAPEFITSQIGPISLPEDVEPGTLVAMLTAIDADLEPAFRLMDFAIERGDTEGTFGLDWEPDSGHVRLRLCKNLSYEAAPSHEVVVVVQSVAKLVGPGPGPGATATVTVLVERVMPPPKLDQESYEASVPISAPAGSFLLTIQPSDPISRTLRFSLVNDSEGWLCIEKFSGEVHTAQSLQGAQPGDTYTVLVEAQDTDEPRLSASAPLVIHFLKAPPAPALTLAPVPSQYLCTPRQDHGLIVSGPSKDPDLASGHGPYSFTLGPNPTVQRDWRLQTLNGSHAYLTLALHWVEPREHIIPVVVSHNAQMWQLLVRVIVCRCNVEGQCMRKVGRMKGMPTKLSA

B1: 29D2D7-z19p1 (antibody, V domains shown)
VH: QVQLVQSGAEVKKPGASVKVSCKASGYTFTDYDMHWVKQAPGQGLEWIGGFDPESAGTVYNLRFKDKATLTADKSTSTAYMELRSLRSEDTAVYYCARKGYYSVSSPFTYWGQGTLVTVSS
VL: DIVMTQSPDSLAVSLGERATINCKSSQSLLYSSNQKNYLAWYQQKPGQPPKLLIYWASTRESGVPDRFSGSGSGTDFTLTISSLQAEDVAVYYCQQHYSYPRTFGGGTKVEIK
notes: PTM-removed variant of 29D2D7-z19 (VL CDR3 cysteine replaced)
B2: 29D2D7-z19p2 (antibody, V domains shown)
VH: QVQLVQSGAEVKKPGASVKVSCKASGYTFTDYDMHWVKQAPGQGLEWIGGFDPESAGTVYNLRFKDKATLTADKSTSTAYMELRSLRSEDTAVYYCARKGYYSVSSPFTYWGQGTLVTVSS
VL: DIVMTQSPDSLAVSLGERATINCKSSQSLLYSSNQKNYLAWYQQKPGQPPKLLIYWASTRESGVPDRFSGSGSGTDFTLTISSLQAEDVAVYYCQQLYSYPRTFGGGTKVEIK
notes: PTM-removed variant of 29D2D7-z19; VH is that of 29D2D7-z19
B3: 143H10E4-z6 (antibody, V domains shown)
VH: QVQLVQSGAEVKKPGSSVKVSCKASGSTFTDHTIHWVRQAPGQGLEWIGYIYPVYGYTQNNEKFKGRATITADKSTSTAYMELSSLRSEDTAVYYCARSRDSNPYYFDYWGQGTTVTVSS
VL: EIVLTQSPDFQSVTPKEKVTITCTVSSSISSSNLHWYQQKPDQSPKPWIYGTSNLASGVPSRFSGSGSGTDYSLTINSLEAEDAATYYCQQWSSYPFTFGQGTKLEIK
notes: Humanized, human IgG1 constant region; also called 143H10E4 HU-VH1-1 / HU-VL1-3
B4: 143H10E4-z3 (antibody, V domains shown)
VH: QVQLVQSGAEVKKPGSSVKVSCKASGSTFTDHTIHWVRQAPGQGLEWMGYIYPVYGYTQNNEKFKGRVTITADKSTSTAYMELSSLRSEDTAVYYCARSRDSNPYYFDYWGQGTTVTVSS
VL: EIVLTQSPDFQSVTPKEKVTITCTVSSSISSSNLHWYQQKPDQSPKPWIYGTSNLASGVPSRFSGSGSGTDYSLTINSLEAEDAATYYCQQWSSYPFTFGQGTKLEIK
notes: Humanized, human IgG1 constant region; also called 143H10E4 HU-VH1-0 / HU-VL1-3
B5: 143H10E4-z9 (antibody, V domains shown)
VH: QVQLVQSGAEVKKPGSSVKVSCKASGSTFTDHTIHWVRQAPGQGLEWIGYIYPVYGYTQNNEKFKGRATITADKSTSTAYMELNSLRSEDTAVYYCARSRDSNPYYFDYWGQGTTVTVSS
VL: EIVLTQSPDFQSVTPKEKVTITCTVSSSISSSNLHWYQQKPDQSPKPWIYGTSNLASGVPSRFSGSGSGTDYSLTINSLEAEDAATYYCQQWSSYPFTFGQGTKLEIK
notes: Humanized, human IgG1 constant region; also called 143H10E4 HU-VH1-2 / HU-VL1-3
B6: 61C7F12 chimeric mAb (antibody, V domains shown)
VH: EVQLVESGGGLVKPGGSLKLSCAASGFTFSSYAMSWVRQTPEKRLEWVATINIGGSYTYYPDSVKGRFTISRDNAKNTLYLQMSSLRSEDTAMYYCARQEGRYWYFDVWGAGTTVTVSS
VL: QIVLTQSPAIMSASLGERVTMTCTASSSVSSSYLHWYQQKPGSSPKLWIYSTSNLASGVPARFSGSGSGTSYSLTISSMEAEDAATYYCHQFHRSPYTFGGGTKLEIK
notes: Mouse variable regions fused to human IgG1 constant region
B7: 29H8D3 chimeric mAb (antibody, V domains shown)
VH: QVQLQQSDAELVKPGASVKISCKVSGYTFTDHTIHWMKQRPEQGLEWIGYIYPRDGYTKYNEKFKDKATLTADKSSSTAYIQLNTLTSEDSAVYFCARFYYGYWYFDVWGTGTTVTVSS
VL: DIVMTQAAPSVPVTPGESVSISCRSSKSLLRSNGNTYLYWFLQRPGQSPQVLIYRMSNLASGVPDRFSGSGSGTAFTLRISRVEAEDVGVYYCMQHLEYPFTFGAGTKLELK
notes: as for B6
B8: 67A11B11 chimeric mAb (antibody, V domains shown)
VH: EIQLQQSGPELVKPGASVKVSCKASGYAFTTYNMYWVKQSHGQSLEWIGYIDPYNGVTIYNQKFKGTATLTVDKSSSTAYMHLNSLSSEDSAVYYCTITAATLDAMDYWGQGTSVTVSS
VL: DIVMTQSHKFMSTSVGDRVSITCKASQNVATAVAWYQQKPGQSPKVLIYWTSTRHNGVPDRFTGSGSGTDFTLTISNVQSEDLADYFCQQYNSHPLTFGAGTRLELK
notes: as for B6
B9: 95F2C2F12 chimeric mAb (antibody, V domains shown)
VH: QVQLQQSGAELMKPGASVKLSCKATGYTFTGYWIEWIKQRPGHGLEWIGEILPGSGSTNYNEKFKGKATFTADTSSNTAYMELSSLTTEDSAIYYCARAGYNNWGQGTTLTVSS
VL: DIQMTQSPSSLSASLGERVSLTCRASQDIGRSVNWLQQEPDGTIKRLIYATSSLESGVPKRFSGSRSGSDYFLTISSLESEDFVDYYCLQYASSPLTFGAGTKLELK
notes: as for B6
B10: 69E3H11 chimeric mAb (antibody, V domains shown)
VH: QVQLQQPGAELVKPGASVKLSCKASGYTFTTYWMHWVKQRPGQGLEWIGEIDPSDSYANYNQKFKGKATLTVDKSSSTAYMQLSSLTSEDSAVYYCALYYGYGDWGQGTTLTVSS
VL: EIVLTQSPTTMAASPGEKIIITCSVSSSISSIHLHWYQQKPGFSPKLLIYRTSNLASGVPTRFSGSGSGTSYSLTIGTMEAEDVATYYCQQGSNLPLTFGAGTRLELK
notes: as for B6
B11: 103G6G1 chimeric mAb (antibody, V domains shown)
VH: EVKLVESEGGLVQPGSSMKLSCTASGFTFSDFYMAWVRQVPEKGLEWVANINYDSTITYYLDSLKSRFIISRDNAENILYLQMSSLKSEDTATYYCARLLYYYGSLYFDVWGTGTTVTVSS
VL: DIQMTQSPASLSASVGETVTITCRASENIYSYLAWYQQKQGKSPQLLVYDAKTLAEGVPSRFSGSGSGTQFSLKINSLQPEDFGSYYCQHHYGIPITFGAGTNLELK
notes: as for B6
B12: 20C3E8 chimeric mAb (antibody, V domains shown)
VH: QVQLQQSGAELARPGASVKLSCKASGYTFTSYGISWVKQRTGQGLEWIGEIYPRSGNTYYNEKFKGKATLTADKSSSTAYMELRSLTSEDSAVYFCSRLDYGTSPFDYWGQGTTLTVSS
VL: NIVMTQSPKSMSMSVGERVTLSCKASENVGTFVSWYQHKPEQSPKLLIYGASNRYTGVPDRFTGSGSATDFTLTISSVQAEDLADYHCGQSYSYPYTFGGGTKLEIK
notes: as for B6

Assays:
[1] = target: T1, human CDH17, full length, expressed on …; test: flow cytometry, HCT-8 cells
[2] = target: T2, hCDH17-his (full length extracellular …); test: SPR (Biacore 8K), antibody captured on Protein A chip, hCDH17-his injected
[3] = target: T3, human CDH16 protein (hCDH16-his, …); test: ELISA, hCDH16-his coated at 1 ug/mL
[4] = target: T1, human CDH17, full length, expressed on …; test: flow cytometry, HEK293-hCDH17 cells

| Binder | binding result [1] | binding result [2] | binding result [3] | binding result [4] |
| --- | --- | --- | --- | --- |
| B1 | binds |  |  |  |
| B2 | binds |  |  |  |
| B3 | binds | binds |  |  |
| B4 | binds | binds |  |  |
| B5 | binds | binds |  |  |
| B6 |  | binds | no binding (tested: titrated from 100 nM) | binds |
| B7 |  |  | no binding (tested: titrated from 100 nM) |  |
| B8 |  | binds | no binding (tested: titrated from 100 nM) | binds |
| B9 |  | binds | no binding (tested: titrated from 100 nM) | binds |
| B10 |  | binds | no binding (tested: titrated from 100 nM) | binds |
| B11 |  | binds | no binding (tested: titrated from 100 nM) | binds |
| B12 |  | binds | no binding (tested: titrated from 100 nM) | binds |

Source: patent EP4806514A2 (Lepu Biopharma Co., Ltd., dated 2025)
